Results from publication PMC10397247.
Values belong to the binder of their own block, whether it stands above or below them.

Legend:
Test in all cases: two-hybrid library CCNG1;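 further: natural log of median RNA to DNA barcode read ratio; higher means stronger binding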
4H570-bA = target: T1, 4H570-bA
T1 chain: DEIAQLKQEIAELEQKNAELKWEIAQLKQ

4H584-bA = target: T2, 4H584-bA
T2 chain: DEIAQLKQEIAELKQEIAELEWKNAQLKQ

4H619-bA = target: T3, 4H619-bA
T3 chain: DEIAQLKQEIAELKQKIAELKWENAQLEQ

4H850-bA = target: T4, 4H850-bA
T4 chain: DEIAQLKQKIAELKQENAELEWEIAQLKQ

4H906-bA = target: T5, 4H906-bA
T5 chain: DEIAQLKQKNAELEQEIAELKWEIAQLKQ

4H953-bN = target: T6, 4H953-bN
T6 chain: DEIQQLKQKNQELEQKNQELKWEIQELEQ

O11 = target: T7, O11
T7 chain: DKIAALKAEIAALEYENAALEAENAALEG

4H264-bA = target: T8, 4H264-bA
T8 chain: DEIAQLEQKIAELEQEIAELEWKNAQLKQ

4H2760-bA = target: T9, 4H2760-bA
T9 chain: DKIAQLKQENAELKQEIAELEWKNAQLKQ

4H2859-bA = target: T10, 4H2859-bA
T10 chain: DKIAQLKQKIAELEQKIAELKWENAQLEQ

4H2931-bA = target: T11, 4H2931-bA
T11 chain: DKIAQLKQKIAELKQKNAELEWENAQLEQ

4H3041-bA = target: T12, 4H3041-bA
T12 chain: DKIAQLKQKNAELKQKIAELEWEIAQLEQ

4H3297-bA = target: T13, 4H3297-bA
T13 chain: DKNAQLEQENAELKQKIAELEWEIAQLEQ

4H3364-bA = target: T14, 4H3364-bA
T14 chain: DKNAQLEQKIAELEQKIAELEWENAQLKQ

4H3381-bA = target: T15, 4H3381-bA
T15 chain: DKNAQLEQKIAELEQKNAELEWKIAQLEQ

4H3427-bA = target: T16, 4H3427-bA
T16 chain: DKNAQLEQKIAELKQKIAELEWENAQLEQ

4H349-bA = target: T17, 4H349-bA
T17 chain: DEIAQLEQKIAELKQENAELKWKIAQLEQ

4H56-bA = target: T18, 4H56-bA
T18 chain: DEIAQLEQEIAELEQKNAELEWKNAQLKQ

4H730-bA = target: T19, 4H730-bA
T19 chain: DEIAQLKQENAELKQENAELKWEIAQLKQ

4H796-bA = target: T20, 4H796-bA
T20 chain: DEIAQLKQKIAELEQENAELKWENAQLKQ

4H932-bA = target: T21, 4H932-bA
T21 chain: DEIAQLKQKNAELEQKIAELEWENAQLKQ

4H949-bA = target: T22, 4H949-bA
T22 chain: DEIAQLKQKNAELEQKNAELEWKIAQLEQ

O8-bS = target: T23, O8-bS
T23 chain: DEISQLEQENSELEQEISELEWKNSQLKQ

P5SH = target: T24, P5SH
T24 chain: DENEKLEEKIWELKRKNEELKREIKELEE

O12 = target: T25, O12
T25 chain: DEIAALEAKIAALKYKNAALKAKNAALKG

O13 = target: T26, O13
T26 chain: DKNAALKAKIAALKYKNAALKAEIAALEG

O14 = target: T27, O14
T27 chain: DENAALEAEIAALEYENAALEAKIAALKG

O15 = target: T28, O15
T28 chain: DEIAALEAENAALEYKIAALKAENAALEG

O16 = target: T29, O16
T29 chain: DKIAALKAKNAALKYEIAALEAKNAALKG

O2 = target: T30, O2
T30 chain: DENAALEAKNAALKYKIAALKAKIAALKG

O3 = target: T31, O3
T31 chain: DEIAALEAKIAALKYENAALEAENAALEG

O4 = target: T32, O4
T32 chain: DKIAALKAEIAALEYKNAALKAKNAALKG

O5 = target: T33, O5
T33 chain: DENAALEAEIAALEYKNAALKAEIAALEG

O6 = target: T34, O6
T34 chain: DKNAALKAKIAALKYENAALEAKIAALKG

O7 = target: T35, O7
T35 chain: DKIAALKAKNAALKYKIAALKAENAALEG

O8 = target: T36, O8
T36 chain: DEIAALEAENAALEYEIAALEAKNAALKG

O9 = target: T37, O9
T37 chain: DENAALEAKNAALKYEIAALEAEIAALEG

P3A-bS = target: T38, P3A-bS
T38 chain: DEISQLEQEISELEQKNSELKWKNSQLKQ

4H1348-bN = target: T39, 4H1348-bN
T39 chain: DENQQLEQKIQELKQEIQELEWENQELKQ

4H1373-bN = target: T40, 4H1373-bN
T40 chain: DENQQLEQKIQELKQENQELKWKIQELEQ

4H1449-bN = target: T41, 4H1449-bN
T41 chain: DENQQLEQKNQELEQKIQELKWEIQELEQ

4H1544-bN = target: T42, 4H1544-bN
T42 chain: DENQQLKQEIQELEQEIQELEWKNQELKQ

4H1710-bN = target: T43, 4H1710-bN
T43 chain: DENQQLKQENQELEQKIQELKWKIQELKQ

4H1899-bN = target: T44, 4H1899-bN
T44 chain: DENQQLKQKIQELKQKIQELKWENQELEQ

4H1985-bN = target: T45, 4H1985-bN
T45 chain: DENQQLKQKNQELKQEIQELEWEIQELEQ

4H3162-bN = target: T46, 4H3162-bN
T46 chain: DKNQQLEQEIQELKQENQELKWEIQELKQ

4H3175-bN = target: T47, 4H3175-bN
T47 chain: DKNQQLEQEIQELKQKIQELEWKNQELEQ

4H3277-bN = target: T48, 4H3277-bN
T48 chain: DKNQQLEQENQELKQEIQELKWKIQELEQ

4H3298-bN = target: T49, 4H3298-bN
T49 chain: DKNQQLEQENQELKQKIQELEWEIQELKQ

4H3462-bN = target: T50, 4H3462-bN
T50 chain: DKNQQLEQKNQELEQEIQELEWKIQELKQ

4H3497-bN = target: T51, 4H3497-bN
T51 chain: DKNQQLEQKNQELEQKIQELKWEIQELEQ

4H3613-bN = target: T52, 4H3613-bN
T52 chain: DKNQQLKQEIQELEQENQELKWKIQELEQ

4H3628-bN = target: T53, 4H3628-bN
T53 chain: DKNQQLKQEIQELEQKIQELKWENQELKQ

4H3817-bN = target: T54, 4H3817-bN
T54 chain: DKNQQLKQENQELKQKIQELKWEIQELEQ

4H3858-bN = target: T55, 4H3858-bN
T55 chain: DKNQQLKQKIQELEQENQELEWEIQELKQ

4H3926-bN = target: T56, 4H3926-bN
T56 chain: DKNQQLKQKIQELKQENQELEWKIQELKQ

4H3974-bN = target: T57, 4H3974-bN
T57 chain: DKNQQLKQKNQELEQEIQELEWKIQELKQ

4H570-bN = target: T58, 4H570-bN
T58 chain: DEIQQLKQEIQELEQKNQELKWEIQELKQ

4H591-bN = target: T59, 4H591-bN
T59 chain: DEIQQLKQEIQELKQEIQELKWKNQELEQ

4H626-bN = target: T60, 4H626-bN
T60 chain: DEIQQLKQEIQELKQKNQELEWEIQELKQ

4H850-bN = target: T61, 4H850-bN
T61 chain: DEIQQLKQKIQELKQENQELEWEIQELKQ

4H906-bN = target: T62, 4H906-bN
T62 chain: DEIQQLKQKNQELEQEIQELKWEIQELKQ

P6bH1 = target: T63, P6bH1
T63 chain: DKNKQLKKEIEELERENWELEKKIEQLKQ

Binder: DEIAQLKQEIAELEQKNAELKWEIAQLKQ [4H570-bA]
interaction score (4H570-bA): -0.223 | interaction score (4H584-bA): -1.33 | interaction score (4H619-bA): -1.3 | interaction score (4H850-bA): 1.98 | interaction score (4H906-bA): 0.277 | interaction score (4H953-bN): -0.0403 | interaction score (O11): -0.882

Binder: DEIAQLEQKIAELEQEIAELEWKNAQLKQ [4H264-bA]
interaction score (4H264-bA): 1.38 | interaction score (4H2760-bA): -0.475 | interaction score (4H2859-bA): 1.6 | interaction score (4H2931-bA): 2.07 | interaction score (4H3041-bA): 2.21 | interaction score (4H3297-bA): 0.896 | interaction score (4H3364-bA): 0.942 | interaction score (4H3381-bA): 0.311 | interaction score (4H3427-bA): 1.19 | interaction score (4H349-bA): -0.396 | interaction score (4H56-bA): -0.504 | interaction score (4H730-bA): -1.63 | interaction score (4H796-bA): -0.521 | interaction score (4H932-bA): -0.419 | interaction score (4H949-bA): -0.323 | interaction score (O8-bS): -1.91 | interaction score (P5SH): 1.79

Further lines, results first:

interaction score (O11): -2.47 | interaction score (O12): 2 | interaction score (O13): -1.9 | interaction score (O14): -2.48 | interaction score (O15): -2.22 | interaction score (O16): -2.6 | interaction score (O2): -2.18 | interaction score (O3): -1.74 | interaction score (O4): 1.77 | interaction score (O5): -2.06 | interaction score (O6): -2.37 | interaction score (O7): -1.85 | interaction score (O8): -2.51 | interaction score (O9): -2.14 | interaction score (P3A-bS): 0.868
Binder: DKIAALKAEIAALEYENAALEAENAALEG [O11]

interaction score (4H1348-bN): -1.55 | interaction score (4H1373-bN): -0.955 | interaction score (4H1449-bN): -0.5 | interaction score (4H1544-bN): -1.46 | interaction score (4H1710-bN): -1.09 | interaction score (4H1899-bN): -0.707 | interaction score (4H1985-bN): -0.781 | interaction score (4H3162-bN): -0.0481 | interaction score (4H3175-bN): -0.302 | interaction score (4H3277-bN): -0.122 | interaction score (4H3298-bN): 0.08 | interaction score (4H3462-bN): -0.171 | interaction score (4H3497-bN): -0.431 | interaction score (4H3613-bN): -0.0173 | interaction score (4H3628-bN): -0.12 | interaction score (4H3817-bN): -0.958 | interaction score (4H3858-bN): -0.748 | interaction score (4H3926-bN): -0.478 | interaction score (4H3974-bN): 0.224 | interaction score (4H570-bN): 0.123 | interaction score (4H591-bN): -1.4 | interaction score (4H626-bN): -0.135 | interaction score (4H850-bN): 0.761 | interaction score (4H906-bN): -0.116 | interaction score (P6bH1): -0.556
Binder: DENQQLEQKIQELKQEIQELEWENQELKQ [4H1348-bN]
